Here are results for 1 substance from publication PMC8660880.

For orientation: stoichiometry N means the number of molecules, sites or subunits per partner or assembly.

This test deals with mS105 (Chlamydomonas reinhardtii (endogenous in strain CC-4351)). In words: cryo-EM structure; single-particle reconstruction of the native small subunit (SSU) of the C. reinhardtii mitoribosome isolated from purified mitochondria; Monosome buffer; 5.49 A, focused refinement 4.19 A (body) and 4.47 A (head).

Regarding mS105 (natural protein), the stoichiometry N came out at 3.
